The assay has as its target ACE2 on ACE2-transfected HEK293 cells (UniProt Q9BYF1). Description: flow cytometry on cells. (In flow cytometry, cells or beads pass a laser one at a time.)
UniProt Q9BYF1, sequence (Q9BYF1 18-805): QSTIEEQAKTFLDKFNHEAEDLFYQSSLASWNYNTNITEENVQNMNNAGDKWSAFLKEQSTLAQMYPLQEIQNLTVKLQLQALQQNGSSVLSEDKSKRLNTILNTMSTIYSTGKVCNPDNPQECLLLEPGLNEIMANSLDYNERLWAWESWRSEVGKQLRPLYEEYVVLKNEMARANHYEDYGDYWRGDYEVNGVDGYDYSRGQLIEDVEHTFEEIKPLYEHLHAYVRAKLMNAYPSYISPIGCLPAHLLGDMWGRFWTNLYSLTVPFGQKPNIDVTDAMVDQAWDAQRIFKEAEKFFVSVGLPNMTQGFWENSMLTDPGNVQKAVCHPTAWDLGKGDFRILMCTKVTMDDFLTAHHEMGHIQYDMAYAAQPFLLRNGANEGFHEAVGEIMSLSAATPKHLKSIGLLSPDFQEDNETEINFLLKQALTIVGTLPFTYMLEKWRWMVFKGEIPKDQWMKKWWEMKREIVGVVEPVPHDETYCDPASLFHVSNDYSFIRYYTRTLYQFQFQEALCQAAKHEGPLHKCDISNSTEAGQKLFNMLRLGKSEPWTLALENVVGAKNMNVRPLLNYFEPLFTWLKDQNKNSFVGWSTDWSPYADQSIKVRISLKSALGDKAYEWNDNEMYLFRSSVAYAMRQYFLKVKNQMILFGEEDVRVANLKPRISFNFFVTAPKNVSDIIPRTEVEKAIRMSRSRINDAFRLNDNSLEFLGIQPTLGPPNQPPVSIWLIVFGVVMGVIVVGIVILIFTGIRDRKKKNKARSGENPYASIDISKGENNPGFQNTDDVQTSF

As a reminder, the EC50 is the concentration at which the effect is half-maximal. Take “SARS-CoV-2 spike protein receptor-binding domain (RBD), His6-tagged (domain or fragment)”: the EC50 was found to be 49.1 nM.

The values are drawn from article PMC8229176.
